± gives the half width of the 95% confidence interval.
Assay: folding stability dG unfold from chymotrypsin proteolysis; higher = more stable
In short: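 Only designs with AlphaFold2 dimer inter-PAE above 15 were retained; each was a mini-protein under 80 residues with no cysteine, in a PA-tagged cDNA display construct. After digestion with trypsin and chymotrypsin and sequencing, K50 was inferred by Bayesian fitting of counts, and unfolding free energy was derived per protease or combined against a sequence-predicted unfolded-state K50 and a shared folded-state K50.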

Point of comparison: “SAGGMITEKVEKIDDGEIIKLTANLSDPSPVVAWLKATGKNVKLVEIKPTTDPETGNTTVNATFLLPSAGGS [r16_699_JUSTAS]”, “folding stability dG unfold” value -0.234 ± 0.41 kcal/mol. Against it:
- SAGGSAGGSMKRLPDGNLVVKLNNGSTWSVITIPVSPDESEEEIKQRLKELFGPNYPEYDISESAGGSAGGS [r12_300_JUSTAS] — higher, 0.917 ± 0.09 kcal/mol
- SAGGSAGGSAKITITKEDIVSYDEENKTFTIKLKDGSTIKIRVEKVKDGKIKVYDEDTGKPISAGGSAGGSA [r18_418_TrROS_Hall] — higher, 1.79 ± 0.048 kcal/mol
- SAGGSAGGSADIGDPSKIKPKPLHFSFPVKIKLSFEYNGPDGVKKTFSLELTFTVVDKGLGSAGGSAGGSAG [r3_380_TrMRF] — higher, 4.14 ± 0.21 kcal/mol
- SAGGSAGGSAKYLVVGGKVIEIPSGGDAKIETTKDDRVKVTIDLPDDRKLEFTFPVPKWVGSAGGSAGGSAG [r3_207_TrMRF] — within error, 0.215 ± 0.099 kcal/mol
- SAGGSAPPTYTFMIPIKEIYVPDPDNGKPKPIPVEEFADFLMPKFGIDVEILDVHPDWIQITVTPDSAGGSA [r15_55_TrROS] — higher, 1.49 ± 0.091 kcal/mol
- SAGGMTPEELEAAARAAAAALRAELEAGDPDVEVDLEVDPEKGTATFTVTDRATGRPRTLTVPFAELASAGG [r13_354_JUSTAS] — higher, 1.94 ± 0.054 kcal/mol
- SMVIPPGSRAEFRLEDVPVRLEVEEGSGKVHFRVFSPENPDEEVFEAEFDINDLKPLDLPPELREAFEKESA [r9_1051_TrMRF] — higher, 1.18 ± 0.32 kcal/mol
- SMVVIEVEPNPETNSLTAKVYLPKDGKKVVEIERSPDGTVKVTVYYKDGSKEEFTFPEDIPIEEAIKKAISA [r9_346_TrMRF] — higher, 1.1 ± 0.13 kcal/mol
- SMTAEVTLTIVYPDGTSTTLPMTFPADDPEALRAAIRAAVAAAGYTPTALQMTFTAQPDGSVRVDVTVTVAS [r1_281_JUSTAS] — higher, 5.7 ± 0.066 kcal/mol
- SAGGSAGGMVVRVTLPDGTVVTFEFESEEEFRKEFAASLGLAPDEIPEERIVSVERLSPEEYRSSAGGSAGG [r6_588_JUSTAS] — higher, 1.64 ± 0.11 kcal/mol
- SAGGKVVTVEVELENGVRVTVEFVEEDGYLALKVTVEVRLPAPPVTTADGREKEVTRRLELVILLPKESAGG [r13_780_TrROS_Hall] — higher, 3.17 ± 0.15 kcal/mol
- SAGKKVRIWIVFDGDPEQAKYLAEEIAKELRQKDGHKNVDIEVIPPGQDMHQMMEWAEENNVDIVIMVSAGG [r19_89_TrROS] — higher, 3.85 ± 0.19 kcal/mol
- SAGKKITAEELAKKIAEELGLPEDAKVEVEEVDGTIYIRVEGYVIKITVKDGEITIEIKPAPASPEALKSAG [r5_190_TrROS_Hall] — higher, 2.91 ± 0.11 kcal/mol
- SAGPPWEPVPITPEIIDKLADKLNPGFPISLQVYRHPDGRVKISIRNEGSGKEYTLVVDPDGDIEIEPSAGG [r19_70_TrROS] — higher, 3.522 ± 0.033 kcal/mol
- SAGPVKIQIEPDNGEEFEFRLPPNVSEIETSGDKFIIRFPPGMMFKIEIDEELPPGDTVPIRILDIVPSAGG [r19_274_TrROS] — higher, 1.26 ± 0.15 kcal/mol
- SAGGITIVWQPGYFRIEFPGNGNTVPIPIPPDDPGRTLEEFADEFIDEMSERFGIPPPEDIKIEYYDSAGGS [r8_402_TrROS] — higher, 1.36 ± 0.084 kcal/mol
- SAGGSAGGSMKTVEIELVNKETGKKVTITVNDGKVTIRITNPDGEEKELEFPSLEEALEALLSSAGGSAGGS [r12_511_TrROS_Hall] — higher, 1.93 ± 0.19 kcal/mol
- SAGGSAGGEEAREAIEQELRARGINVTEIKVEEKKLTPDKTVVTFTVTARLPDSELTSTFTVVDSAGGSAGG [r6_533_JUSTAS] — within error, -0.92 ± 0.81 kcal/mol
- SAGGSAGGSAGMTLRLKIRVYDPETREEVEEKEIEVELPPGASLEELLAALPPEQVEVEFSAGGSAGGSAGG [r17_339_TrROS_Hall] — higher, 1.1 ± 0.2 kcal/mol
- PFPIYVKIERDGKPVREEPIPMDELQEMPVEEVIEYARELLRQFPGRKYKVEVYFPGGPREFEIKDPEDIKS [r1_477_TrROS] — higher, 1.58 ± 0.14 kcal/mol
- SAGGLIEAIKEAIDQAPPGDEEVTIPIRFPNGTFVIEIRREKDKYKIEIEMQNPNGQKQEITITIEVSAGGS [r16_642_TrROS] — higher, 1.69 ± 0.089 kcal/mol
- SAGGSAGGAPPDLKVTVKPTPGPGTGQRYTVVVELDEGGVLPFPFSFASPSEVEKAAKAIAALLSAGGSAGG [r6_996_TrMRF] — higher, 1.57 ± 0.14 kcal/mol
- SAGGSAGGSKETLTIKIKVEVKDENGEKKEVTVTLTIKAETKEEAEALLKELKEKYPNVKVEPSAGGSAGGS [r12_1043_TrROS_Hall] — higher, 2.9 ± 0.11 kcal/mol
- SMKYRITLTITKGDEDIVVEIETESEEEAKEKFKKAISPELLKALPEDAKVEITVEPEPLVIPEPGVPLPSA [r9_111_JUSTAS] — higher, 1.22 ± 0.12 kcal/mol
- SAGGMRLRIVVKSEEEARELAEALAKKLKEEFPGLKIEVKVVKVEYNEETDLIVVEVEIKVELEDEEPSAGG [r13_585_TrROS_Hall] — higher, 4.42 ± 0.19 kcal/mol
- SAGGSAGGSAGGSKPMYLFTVETENGKKLVIEAKSLEEALKALEKAGYKIKKVEVVKLPSAGGSAGGSAGGS [r4_213_TrROS_Hall] — higher, 3.996 ± 0.036 kcal/mol
- SAGGSAGGSSVPEGWEVEREKVLEAEIVGEDGPVLRVRLYRVRVRPVDGPPRYFFELDVDDVDSAGGSAGGS [r12_544_TrMRF] — higher, 2.915 ± 0.027 kcal/mol
- SAGRIHVMVFPLDPKDGKWEWVWTFTIDFKPGEKLTLDEIADDIPPKGYMVMIWFTPDTITITIWRRKDSAG [r5_269_TrROS] — higher, 5.33 ± 0.082 kcal/mol
- SAGGSAGSYLVRVRIRRPEDGKELADAVFEVPPDEPVTAEAILKELGIPPEEAKNIEIEVEVFELGSAGGSA [r15_665_TrMRF] — higher, 3.05 ± 0.031 kcal/mol
- SAWIPAKEIAKYLAKELQEKMPHPGMKIPVDVETNPEENYVRVDIDIEHPGDGGKWKFEIYIPPGDTIVSAG [r14_849_TrROS] — higher, 1.8 ± 0.095 kcal/mol
- SAGGSAGGSAGMETTDSVITYPDGSVVTVTTLPDGTTRVTTFYPESGLTEEEIVPAAELGSAGGSAGGSAGG [r11_1015_JUSTAS] — higher, 2.56 ± 0.1 kcal/mol

From the supplement of paper PMC12764529
